Measurements: patent US20220168400A1, “USE OF A MANGANESE SUPEROXIDE DISMUTASE WITH HIGH STABILITY IN THE PREVENTION OR TREATMENT OF CEREBRAL STROKE” (CARRY HEALTH BIOPHARMACEUTICALS (HANGZHOU) CO., LTD., priority 2019, published 2022)

Tests used:
[1] = system: middle cerebral artery occlusion (MCAO) model in C57BL/6J mice; assay: Cerebral infarction area in middle cerebral artery occlusion (MCAO) model (TTC staining); type: in vivo; conditions: vs model group
From the text: Male C57BL/6J wild-type mice were all purchased from Guangdong Experimental Animal Center. The male C57BL/6J wild-type mice were 8 weeks old, when they were subjected to establish middle cerebral artery occlusion (MCAO) model.
(3) MS-SOD1 group (10 mice): mice aged 4 weeks were fed with drinking water supplemented with MS-SOD for 4 weeks (3 U/day/g body weight), and then subjected to establish middle cerebral artery occlusion model;
(4) MS-SOD2 group (10 mice): after establishing middle cerebral artery occlusion model, the mice were intragastrically administered with MS-SOD 600 U once when they waked up from the anesthesia. […]
At 24 hours after MCAO model establishment, the head was cut off and the brain was taken after anesthesia. […] The infarction area of each territory was measured by ImageJ software. […] The total infarction area was calculated by integrating the infarction territories between sections.
Finally, the differences of different intervention conditions and MCAO model establishment on the degree of cerebral injury and neurological severity in mice were analyzed. All data were expressed as mean ±standard deviation. […]

[2] = system: cerebral hemorrhage model in wild-type AB strain zebrafish; assay: Simvastatin-induced cerebral hemorrhage model in zebrafish (incidence); type: in vivo; conditions: for Number of zebrafish with cerebral hemorrhage / Incidence of cerebral hemorrhage: n = 30; for Incidence of cerebral hemorrhage: model control 83%
Protocol: 1 dpf wild-type AB strain zebrafish was administered with an aqueous simvastatin solution (0.5 μM) for 18 hours to establish a cerebral hemorrhage model in zebrafish. 180 wild-type AB strain zebrafishes at 1 day post fertilization (1 dpf) were randomly selected and put in a six-well plate, 30 per well (experiment group). Simvastatin was used to induce a cerebral hemorrhage model in zebrafish. Aqueous MS-SOD solutions with concentrations of 222, 667 and 2000 μg/mL were administrated respectively, the concentration of positive control drug icariin was 30 μM, and the normal control group and the model control group were set at the same time. The volume of each well was 3 mL. After 18 hours of co-treatment with MS-SOD and simvastatin, 30 zebrafishes from each group were selected and observed under a microscope, photos were taken and saved. The number of zebrafish with cerebral hemorrhage was counted, and the incidence of cerebral hemorrhage in zebrafish of each experiment group was calculated.

[3] = Specific activity of MS-SOD; type: biochemical; conditions: MS-SOD used in the zebrafish experiments

B1: MS-SOD: manganese superoxide dismutase with high stability, gene from Thermus thermophilus HB27 expressed in E. coli; amino acid sequence SEQ ID NO: 4 (protein)
chain: MPYPFKLPDLGYPYEALEPHIDAKTMEIHHQKHHGAYVTNLNAALEKYPYLHGVEVEVLLRHLAALPQDIQTAVRNNGGGHLNHSLFWRLLTPGGAKEPVGELKKAIDEQFGGFQALKEKLTQAAMGRFGSGWAWLVKDPFGKLHVLSTPNQDNPVMEGFTPIVGIDVWEHAYYLKYQNRRADYLQAIWNVLNWDVAEEFFKKA
modifications: Amino acid sequence for MS-SOD
area of cerebral injury ([1]; MS-SOD1 group: 3 U/day/g body weight for 4 weeks before MCAO, P=0): significantly reduced | area of cerebral injury ([1]; MS-SOD2 group: 600 U intragastrically once after MCAO, P=0.015): significantly reduced | Improvement effect on cerebral hemorrhage ([2]; MS-SOD 222 μg/mL): 28% | Number of zebrafish with cerebral hemorrhage ([2]; MS-SOD 222 μg/mL): 18 | Incidence of cerebral hemorrhage ([2]; MS-SOD 222 μg/mL): 60% | Improvement effect on cerebral hemorrhage ([2]; MS-SOD 667 μg/mL): 20% | Number of zebrafish with cerebral hemorrhage ([2]; MS-SOD 667 μg/mL): 20 | Incidence of cerebral hemorrhage ([2]; MS-SOD 667 μg/mL): 67% | Improvement effect on cerebral hemorrhage ([2]; MS-SOD 2000 μg/mL): 32% | Number of zebrafish with cerebral hemorrhage ([2]; MS-SOD 2000 μg/mL): 17 | Incidence of cerebral hemorrhage ([2]; MS-SOD 2000 μg/mL): 57% | specific activity [3]: 5 U/μg
